# Test results reported in publication PMC8140096, “Structural basis of substrate recognition and thermal protection by a small heat shock protein” (Nature Communications, 2021).
# B1: Arabidopsis thaliana 1-deoxy-D-xylulose 5-phosphate synthase (59-717), C-terminal hexahistidine-FLAG tandem tag (enzyme, UniProt Q38854 59-717, looked up)
# chain: ASLAEKGEYYSNRPPTPLLDTINYPIHMKNLSVKELKQLSDELRSDVIFNVSKTGGHLGSSLGVVELTVALHYIFNTPQDKILWDVGHQSYPHKILTGRRGKMPTMRQTNGLSGFTKRGESEHDCFGTGHSSTTISAGLGMAVGRDLKGKNNNVVAVIGDGAMTAGQAYEAMNNAGYLDSDMIVILNDNKQVSLPTATLDGPSPPVGALSSALSRLQSNPALRELREVAKGMTKQIGGPMHQLAAKVDEYARGMISGTGSSLFEELGLYYIGPVDGHNIDDLVAILKEVKSTRTTGPVLIHVVTEKGRGYPYAERADDKYHGVVKFDPATGRQFKTTNKTQSYTTYFAEALVAEAEVDKDVVAIHAAMGGGTGLNLFQRRFPTRCFDVGIAEQHAVTFAAGLACEGLKPFCAIYSSFMQRAYDQVVHDVDLQKLPVRFAMDRAGLVGADGPTHCGAFDVTFMACLPNMIVMAPSDEADLFNMVATAVAIDDRPSCFRYPRGNGIGVALPPGNKGVPIEIGKGRILKEGERVALLGYGSAVQSCLGAAVMLEERGLNVTVADARFCKPLDRALIRSLAKSHEVLITVEEGSIGGFGSHVVQFLALDGLLDGKLKWRPMVLPDRYIDHGAPADQLAEAGLMPSHIAATALNLIGAPREALF
# notes: 1-deoxy-D-xylulose 5-phosphate synthase (DXPS), Arabidopsis thaliana, UniProt Q38854, residues 59-717, without the transit peptide; also called DXPS; DXPS-His-FLAG; source: E. coli BL21 Rosetta 2 (DE3), co-expressed with His-Hsp21 at 37 °C, purified (HisTrap, anti-FLAG M2); not shown: His6, C-terminal, kept; FLAG, C-terminal, kept
# Key:
# [1] = target: the molecule itself; test: cryo-EM structure; purified Hsp21 without substrate, 1 mg/mL; tetrahedral symmetry imposed, 4.6 Å
# [2] = target: B1; test: cryo-EM structure; His-Hsp21 and DXPS-His-FLAG co-expressed in E. coli at 37 °C, purified together (HisTrap, anti-FLAG), 0.7 mg/mL; 3D classification gave free DXPS (4.0 Å) and Hsp21-DXPS (3.7 Å); details: both partners purified
# [3] = target: the molecule itself; test: as above
Binder,stoichiometry N [1],stoichiometry N [2],stoichiometry N [3]
"Arabidopsis thaliana plastid small heat shock protein Hsp21 (44-227), N-terminal hexahistidine tag (natural protein, Hsp21, Arabidopsis thaliana, UniProt P31170, residues 44-227, without the transit peptide; Alone it is a dodecamer (twelve identical subunits, tetrahedral); In the complex with DXPS it is a single monomer; also called His-Hsp21; Hsp21 dodecamer; source: E. coli BL21 Rosetta 2 (DE3), co-expressed with DXPS-His-FLAG at 37 °C, complex purified (HisTrap, anti-FLAG M2); E. coli BL21 Rosetta (DE3), …) not shown",12,1,
B1,,,2
